Bridge positions count the residues as written; N and C are the ends. Square brackets hold non-standard residues; d marks the D form. Ends that are not written are not given here. Aib = CC(C)(N)C(=O)O
What follows are binders tested against human glucagon receptor (human, UniProt P47871 26-477) (assay: cell-based or functional assay).
human glucagon receptor, sequence (P47871 26-477): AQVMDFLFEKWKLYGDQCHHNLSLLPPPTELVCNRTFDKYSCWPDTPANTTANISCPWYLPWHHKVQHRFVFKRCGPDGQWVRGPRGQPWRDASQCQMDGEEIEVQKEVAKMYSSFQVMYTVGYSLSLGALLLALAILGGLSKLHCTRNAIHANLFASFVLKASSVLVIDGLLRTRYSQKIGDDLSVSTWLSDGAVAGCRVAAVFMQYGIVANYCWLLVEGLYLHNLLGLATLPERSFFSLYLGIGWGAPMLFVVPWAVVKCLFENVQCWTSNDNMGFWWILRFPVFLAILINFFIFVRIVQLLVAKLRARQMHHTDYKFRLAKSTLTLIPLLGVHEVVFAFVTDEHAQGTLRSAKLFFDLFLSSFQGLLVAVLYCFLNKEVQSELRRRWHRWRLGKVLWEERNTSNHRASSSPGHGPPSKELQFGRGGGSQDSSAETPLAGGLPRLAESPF
For Y[Aib]QGTFTSDYSKCLDERRAKDFVQWLMNT (lactam 16-20) [glucagon derivative peptide of SEQ ID NO: 29], the “In vitro activity (relative activity compared with SEQ ID NO: 1, %); cAMP EC50 in CHO cells expressing human GCG receptor” value was 61.3%. Y[Aib]QGTFVSDYSKYLDECRAKDFVQWLMNT (lactam 16-20) [glucagon derivative peptide of SEQ ID NO: 27] was tested, and the “In vitro activity (relative activity compared with SEQ ID NO: 1, %); cAMP EC50 in CHO cells expressing human GCG receptor” value was 93.6%. In the case of Y[Aib]QGTFTSDYSKYLDCRRAQVFVQWLMRT [glucagon derivative peptide of SEQ ID NO: 16], the “In vitro activity (relative activity compared with SEQ ID NO: 1, %); cAMP EC50 in CHO cells expressing human GCG receptor” value is reported as 4.2%. W[Aib]QGTFTSDYSKYCDERRAKEFVQWLMNT (lactam 16-20) [glucagon derivative peptide of SEQ ID NO: 34] was tested, and the “In vitro activity (relative activity compared with SEQ ID NO: 1, %); cAMP EC50 in CHO cells expressing human GCG receptor” value was 0.2%. With Y[Aib]QGTFTSDYSKYLDEKRCKEFVQWLMNT (lactam 16-20) [glucagon derivative peptide of SEQ ID NO: 22] the “In vitro activity (relative activity compared with SEQ ID NO: 1, %); cAMP EC50 in CHO cells expressing human GCG receptor” value was 148%. With SQGTFTSDYSKYLDECRAKEFVQWLMNT (lactam 15-19) [glucagon derivative peptide of SEQ ID NO: 32] the “In vitro activity (relative activity compared with SEQ ID NO: 1, %); cAMP EC50 in CHO cells expressing human GCG receptor” value was 0.7%. In the case of Y[Aib]QGTFTSDYSKYLDSCDAQDFVQWLINT [glucagon derivative peptide of SEQ ID NO: 8], the “In vitro activity (relative activity compared with SEQ ID NO: 1, %); cAMP EC50 in CHO cells expressing human GCG receptor” value is reported as < 0.1%. For YXQGTFTSDYSKYLDSRRAQDFVQWLMNTC (aminoisobutyric acid (Aib) at position 2 (printed X)) [glucagon derivative peptide of SEQ ID NO: 44], the “In vitro activity (relative activity compared with SEQ ID NO: 1, %); cAMP EC50 in CHO cells expressing human GCG receptor” value was 75.4%. W[Aib]QGTFTSDYSKYLDECRAKDFVQWLMNT (lactam 16-20) [glucagon derivative peptide of SEQ ID NO: 26] was tested, and the “In vitro activity (relative activity compared with SEQ ID NO: 1, %); cAMP EC50 in CHO cells expressing human GCG receptor” value was 1%. For Y[Aib]QGTFTSDYSKYLDSRRACDFRLWLMNT [glucagon derivative peptide of SEQ ID NO: 18], the “In vitro activity (relative activity compared with SEQ ID NO: 1, %); cAMP EC50 in CHO cells expressing human GCG receptor” value was < 0.1%. For Y[Aib]QGTFTSDYSCYLDSRRAQDFVQWLMNT [glucagon derivative peptide of SEQ ID NO: 13], the “In vitro activity (relative activity compared with SEQ ID NO: 1, %); cAMP EC50 in CHO cells expressing human GCG receptor” value was 5.2%. For Y[Aib]QGTFTSDYSKCLDEKRAKEFVQWLMNT (lactam 16-20) [glucagon derivative peptide of SEQ ID NO: 24], the “In vitro activity (relative activity compared with SEQ ID NO: 1, %); cAMP EC50 in CHO cells expressing human GCG receptor” value was 58%. For HSQGTFTSDYSKYLDSCEAQDFVQWLMNT [glucagon derivative peptide of SEQ ID NO: 5], the “In vitro activity (relative activity compared with SEQ ID NO: 1, %); cAMP EC50 in CHO cells expressing human GCG receptor” value was 0.3%. Y[Aib]QGTFTSDYSKYLCEKRAKEFVQWLMNT (lactam 16-20) [glucagon derivative peptide of SEQ ID NO: 19] was tested, and the “In vitro activity (relative activity compared with SEQ ID NO: 1, %); cAMP EC50 in CHO cells expressing human GCG receptor” value was 12.1%. In the case of Y[Aib]QGTFTSDYSKYLCEKRAQDFVVWLMNT [glucagon derivative peptide of SEQ ID NO: 15], the “In vitro activity (relative activity compared with SEQ ID NO: 1, %); cAMP EC50 in CHO cells expressing human GCG receptor” value is reported as 1.1%. In the case of W[Aib]QGTFTSDYSKCLDERRAKDFVQWLMNT (lactam 16-20) [glucagon derivative peptide of SEQ ID NO: 30], the “In vitro activity (relative activity compared with SEQ ID NO: 1, %); cAMP EC50 in CHO cells expressing human GCG receptor” value is reported as 0.3%. With Y[Aib]QGTFTSDYSKYLDCKRAKEFVQWLMNT [glucagon derivative peptide of SEQ ID NO: 14] the “In vitro activity (relative activity compared with SEQ ID NO: 1, %); cAMP EC50 in CHO cells expressing human GCG receptor” value was 18.1%. In the case of HSQGTFTSDYSKYLDCERAQDFVQWLMNT [glucagon derivative peptide of SEQ ID NO: 3], the “In vitro activity (relative activity compared with SEQ ID NO: 1, %); cAMP EC50 in CHO cells expressing human GCG receptor” value is reported as 6.1%. For Y[Aib]QGTFTSDYSKYCDEKRAKEFVQWLMNT (lactam 16-20) [glucagon derivative peptide of SEQ ID NO: 23], the “In vitro activity (relative activity compared with SEQ ID NO: 1, %); cAMP EC50 in CHO cells expressing human GCG receptor” value was 76.8%. For Y[Aib]QGTFTSDCSKYLDSRRAQDFVQWLMNT [glucagon derivative peptide of SEQ ID NO: 43], the “In vitro activity (relative activity compared with SEQ ID NO: 1, %); cAMP EC50 in CHO cells expressing human GCG receptor” value was 1.6%. Y[Aib]QGTFCSDYSKYLDERRAKDFVQWLMNT (lactam 16-20) [glucagon derivative peptide of SEQ ID NO: 41] was tested, and the “In vitro activity (relative activity compared with SEQ ID NO: 1, %); cAMP EC50 in CHO cells expressing human GCG receptor” value was 45.2%. For Y[Aib]QGTFTSDYSKYLDEKRAKCFVQWLMNT (lactam 16-20) [glucagon derivative peptide of SEQ ID NO: 25], the “In vitro activity (relative activity compared with SEQ ID NO: 1, %); cAMP EC50 in CHO cells expressing human GCG receptor” value was 46.9%. With YSQGTFTSDYSKYLDSCEADDFVQWLMNT [glucagon derivative peptide of SEQ ID NO: 7] the “In vitro activity (relative activity compared with SEQ ID NO: 1, %); cAMP EC50 in CHO cells expressing human GCG receptor” value was < 0.1%. Y[Aib]QGTFTSDYSKYLDCKRAKEFVQWLMNT (lactam 17-21) [glucagon derivative peptide of SEQ ID NO: 31] was tested, and the “In vitro activity (relative activity compared with SEQ ID NO: 1, %); cAMP EC50 in CHO cells expressing human GCG receptor” value was 6.3%. In the case of Y[Aib]QGTFTSDYSKYLDSCDAQDFVVWLINT [glucagon derivative peptide of SEQ ID NO: 9], the “In vitro activity (relative activity compared with SEQ ID NO: 1, %); cAMP EC50 in CHO cells expressing human GCG receptor” value is reported as < 0.1%. HSQGTFTSDYSKYLDCDRAQDFVQWLMNT [glucagon derivative peptide of SEQ ID NO: 2] was tested, and the “In vitro activity (relative activity compared with SEQ ID NO: 1, %); cAMP EC50 in CHO cells expressing human GCG receptor” value was 0.6%. In the case of Y[Aib]QGTFTSDYSKYLDECRAKEFVQWLMNT (lactam 16-20) [glucagon derivative peptide of SEQ ID NO: 20], the “In vitro activity (relative activity compared with SEQ ID NO: 1, %); cAMP EC50 in CHO cells expressing human GCG receptor” value is reported as 300%. For HSQGTFTSDYSKYLDSCDAQDFVQWLMNT [glucagon derivative peptide of SEQ ID NO: 4], the “In vitro activity (relative activity compared with SEQ ID NO: 1, %); cAMP EC50 in CHO cells expressing human GCG receptor” value was < 0.1%. In the case of YXQGTFTSDYSKYLDSRRAQDFVQWLMNT (aminoisobutyric acid (Aib) at position 2 (printed X)) [glucagon derivative peptide of SEQ ID NO: 33], the “In vitro activity (relative activity compared with SEQ ID NO: 1, %); cAMP EC50 in CHO cells expressing human GCG receptor” value is reported as 108%. For HSQGTFTSDYSKYLDSCEADDFVQWLMNT [glucagon derivative peptide of SEQ ID NO: 6], the “In vitro activity (relative activity compared with SEQ ID NO: 1, %); cAMP EC50 in CHO cells expressing human GCG receptor” value was < 0.1%. For Y[Aib]QGTFCSDYSKYLDSRRAQDFVQWLMNT [glucagon derivative peptide of SEQ ID NO: 42], the “In vitro activity (relative activity compared with SEQ ID NO: 1, %); cAMP EC50 in CHO cells expressing human GCG receptor” value was 37.9%. Y[Aib]QGTFTSDYSKYLDEKCAKEFVQWLMNT (lactam 16-20) [glucagon derivative peptide of SEQ ID NO: 21] was tested, and the “In vitro activity (relative activity compared with SEQ ID NO: 1, %); cAMP EC50 in CHO cells expressing human GCG receptor” value was 57.8%. With Y[Aib]QGTFVSDCSKYLDERRAKDFVQWLMNT (lactam 16-20) [glucagon derivative peptide of SEQ ID NO: 39] the “In vitro activity (relative activity compared with SEQ ID NO: 1, %); cAMP EC50 in CHO cells expressing human GCG receptor” value was 3.7%. For W[Aib]QGTFVSDYSKYLDECRAKDFVQWLMNT (lactam 16-20) [glucagon derivative peptide of SEQ ID NO: 28], the “In vitro activity (relative activity compared with SEQ ID NO: 1, %); cAMP EC50 in CHO cells expressing human GCG receptor” value was < 0.1%. With Y[Aib]QGTFTSDCSKYLDERRAKEFVQWLMNT (lactam 16-20) [glucagon derivative peptide of SEQ ID NO: 36] the “In vitro activity (relative activity compared with SEQ ID NO: 1, %); cAMP EC50 in CHO cells expressing human GCG receptor” value was 9.9%. Y[Aib]QGTFCSDYSKYLDERRAKEFVQWLMNT (lactam 16-20) [glucagon derivative peptide of SEQ ID NO: 38] was tested, and the “In vitro activity (relative activity compared with SEQ ID NO: 1, %); cAMP EC50 in CHO cells expressing human GCG receptor” value was 167%. With Y[Aib]QGTFTSDYSCYLDEKRAKEFVQWLMNT [glucagon derivative peptide of SEQ ID NO: 45] the “In vitro activity (relative activity compared with SEQ ID NO: 1, %); cAMP EC50 in CHO cells expressing human GCG receptor” value was 5.2%. In the case of Y[Aib]QGTFVSDYSKYLDERRAKDFVQWLMNTC (lactam 16-20) [glucagon derivative peptide of SEQ ID NO: 40], the “In vitro activity (relative activity compared with SEQ ID NO: 1, %); cAMP EC50 in CHO cells expressing human GCG receptor” value is reported as 40.8%. With Y[Aib]QGTFTSDYSKYLDERRAKEFVQWLMNTC (lactam 16-20) [glucagon derivative peptide of SEQ ID NO: 37] the “In vitro activity (relative activity compared with SEQ ID NO: 1, %); cAMP EC50 in CHO cells expressing human GCG receptor” value was 226%. With Y[Aib]QGTFTSDYSKYLDEKCAKEFVQWLMNT [glucagon derivative peptide of SEQ ID NO: 11] the “In vitro activity (relative activity compared with SEQ ID NO: 1, %); cAMP EC50 in CHO cells expressing human GCG receptor” value was 4.6%. In the case of Y[Aib]QGTFTSDYSKYLDSCDADDFVVWLINT [glucagon derivative peptide of SEQ ID NO: 10], the “In vitro activity (relative activity compared with SEQ ID NO: 1, %); cAMP EC50 in CHO cells expressing human GCG receptor” value is reported as < 0.1%. With Y[Aib]QGTFTSDYSKYCDERRAKEFVQWLMNT (lactam 16-20) [glucagon derivative peptide of SEQ ID NO: 35] the “In vitro activity (relative activity compared with SEQ ID NO: 1, %); cAMP EC50 in CHO cells expressing human GCG receptor” value was 17.7%. For Y[Aib]QGTFTSDYSKYLDCVRAQDFVQWLMRT [glucagon derivative peptide of SEQ ID NO: 17], the “In vitro activity (relative activity compared with SEQ ID NO: 1, %); cAMP EC50 in CHO cells expressing human GCG receptor” value was 23.2%.

Source: patent US20250121086A1, “LIVER-TARGETED SUBSTANCE AND USE THEREOF” (HANMI PHARM. CO., LTD., priority 2021, published 2025)
